Results published in publication PMC10336103, “ResR/McdR-regulated protein translation machinery contributes to drug resilience in Mycobacterium tuberculosis” (Communications Biology, 2023).
pKd: −log10 of the molar value.

How the values were obtained:
Assay in all cases: EMSA
[1] = system: ResR/McdR (ResR1-225) (Mycobacterium tuberculosis Erdman)
[2] = system: ResR/McdRMS (Mycobacterium smegmatis)
[3] = system: ResR/McdR17-225 (Mycobacterium tuberculosis Erdman)

Q: How did the pKd [1] turn out when PrplN_FL was run?
A: The pKd was 6.11.

Q: And the pKd [2]?
A: Its pKd is 5.85.

Q: And the pKd [3]?
A: Its pKd is 5.93.

Q: How did the pKd [1] turn out when PwhiB2_FL was run?
A: Its pKd is 6.48.
